Test results: article PMC4790104 (Analytical chemistry, 2016)

Legend:
Assay in all cases: native MS
Ski2 = target: T1, Ski2 (S. cerevisiae (endogenous in budding …, UniProt P35207 1-1287))
T1 sequence (looked up): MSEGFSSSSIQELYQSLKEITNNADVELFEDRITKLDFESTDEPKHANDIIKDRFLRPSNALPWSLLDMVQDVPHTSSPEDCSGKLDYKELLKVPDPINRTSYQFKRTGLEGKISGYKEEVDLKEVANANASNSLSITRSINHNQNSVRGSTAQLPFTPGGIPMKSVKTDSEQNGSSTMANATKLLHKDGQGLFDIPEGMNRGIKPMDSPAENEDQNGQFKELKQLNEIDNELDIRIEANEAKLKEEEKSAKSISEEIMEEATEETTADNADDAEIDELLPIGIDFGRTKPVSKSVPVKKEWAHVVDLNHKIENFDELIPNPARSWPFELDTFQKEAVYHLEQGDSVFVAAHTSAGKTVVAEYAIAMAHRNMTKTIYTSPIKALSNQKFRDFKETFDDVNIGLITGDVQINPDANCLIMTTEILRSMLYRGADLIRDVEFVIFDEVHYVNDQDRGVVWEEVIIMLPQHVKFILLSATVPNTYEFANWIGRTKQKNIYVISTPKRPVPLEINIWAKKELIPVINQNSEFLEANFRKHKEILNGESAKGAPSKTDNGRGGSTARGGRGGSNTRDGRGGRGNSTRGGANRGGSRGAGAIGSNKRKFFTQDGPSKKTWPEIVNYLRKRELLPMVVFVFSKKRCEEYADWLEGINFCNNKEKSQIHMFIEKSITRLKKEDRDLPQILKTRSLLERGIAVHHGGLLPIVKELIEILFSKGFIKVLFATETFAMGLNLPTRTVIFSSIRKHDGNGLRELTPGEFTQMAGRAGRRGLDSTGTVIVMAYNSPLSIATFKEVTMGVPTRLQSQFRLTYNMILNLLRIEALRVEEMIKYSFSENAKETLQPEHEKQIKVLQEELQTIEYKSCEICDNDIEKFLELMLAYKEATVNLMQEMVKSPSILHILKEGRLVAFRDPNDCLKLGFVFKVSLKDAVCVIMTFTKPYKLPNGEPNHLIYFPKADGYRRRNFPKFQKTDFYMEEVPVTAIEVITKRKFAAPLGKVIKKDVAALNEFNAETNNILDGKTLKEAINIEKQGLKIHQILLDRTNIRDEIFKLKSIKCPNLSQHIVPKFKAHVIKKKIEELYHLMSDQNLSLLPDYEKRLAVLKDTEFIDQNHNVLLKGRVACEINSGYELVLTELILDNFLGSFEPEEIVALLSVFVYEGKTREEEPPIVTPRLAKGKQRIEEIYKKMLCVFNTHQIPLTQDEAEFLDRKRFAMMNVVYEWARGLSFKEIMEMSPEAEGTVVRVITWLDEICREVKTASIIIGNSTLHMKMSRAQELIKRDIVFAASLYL

Ski3 = target: T2, Ski3 (S. cerevisiae (endogenous in budding …, UniProt P17883 1-1432))
T2 sequence (looked up): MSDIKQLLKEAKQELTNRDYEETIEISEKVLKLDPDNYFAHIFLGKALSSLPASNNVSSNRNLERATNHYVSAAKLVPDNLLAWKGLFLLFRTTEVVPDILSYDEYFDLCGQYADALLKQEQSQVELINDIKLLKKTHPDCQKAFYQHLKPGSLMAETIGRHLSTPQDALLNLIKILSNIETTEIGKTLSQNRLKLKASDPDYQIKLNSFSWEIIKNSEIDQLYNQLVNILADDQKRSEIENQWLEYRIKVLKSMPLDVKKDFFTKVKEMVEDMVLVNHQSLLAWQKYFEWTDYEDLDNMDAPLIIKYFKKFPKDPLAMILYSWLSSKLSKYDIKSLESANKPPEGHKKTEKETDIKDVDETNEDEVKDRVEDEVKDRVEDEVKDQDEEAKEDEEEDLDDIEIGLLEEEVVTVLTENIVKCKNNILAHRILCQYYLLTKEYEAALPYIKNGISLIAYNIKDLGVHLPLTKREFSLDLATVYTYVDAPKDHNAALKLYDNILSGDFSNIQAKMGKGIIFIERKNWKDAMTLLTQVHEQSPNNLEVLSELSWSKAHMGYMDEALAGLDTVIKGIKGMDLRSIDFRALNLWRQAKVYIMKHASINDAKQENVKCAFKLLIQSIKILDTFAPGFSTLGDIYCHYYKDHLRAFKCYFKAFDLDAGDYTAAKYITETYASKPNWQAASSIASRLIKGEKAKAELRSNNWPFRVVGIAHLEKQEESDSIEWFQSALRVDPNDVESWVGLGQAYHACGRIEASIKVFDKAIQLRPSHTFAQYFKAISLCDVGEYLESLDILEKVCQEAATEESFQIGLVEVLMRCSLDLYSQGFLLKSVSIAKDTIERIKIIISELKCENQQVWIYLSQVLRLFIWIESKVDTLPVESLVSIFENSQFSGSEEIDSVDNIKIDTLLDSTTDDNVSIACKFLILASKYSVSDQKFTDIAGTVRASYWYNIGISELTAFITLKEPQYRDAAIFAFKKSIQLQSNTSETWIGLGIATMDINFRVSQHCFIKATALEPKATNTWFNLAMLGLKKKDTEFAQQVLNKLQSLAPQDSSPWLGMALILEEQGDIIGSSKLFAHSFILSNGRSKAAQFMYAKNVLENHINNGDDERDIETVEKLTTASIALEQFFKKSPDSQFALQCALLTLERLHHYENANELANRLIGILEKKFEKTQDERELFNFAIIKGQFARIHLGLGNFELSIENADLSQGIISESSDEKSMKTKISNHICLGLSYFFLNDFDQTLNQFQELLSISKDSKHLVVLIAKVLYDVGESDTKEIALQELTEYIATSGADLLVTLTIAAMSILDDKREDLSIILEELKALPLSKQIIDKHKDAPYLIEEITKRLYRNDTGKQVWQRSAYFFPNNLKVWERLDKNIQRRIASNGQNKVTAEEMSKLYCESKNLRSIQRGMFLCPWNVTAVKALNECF

native MS = target: the molecule itself

Binder	stoichiometry N (Ski2)	stoichiometry N (Ski3)	stoichiometry N (native MS)
Ski8 (natural protein, UniProt Q02793 1-397, looked up) MSKVFIATANAGKAHDADIFSVSACNSFTVSCSGDGYLKVWDNKLLDNENPKDKSYSHFVHKSGLHHVDVLQAIERDAFELCLVATTSFSGDLLFYRITREDETKKVIFEKLDLLDSDMKKHSFWALKWGASNDRLLSHRLVATDVKGTTYIWKFHPFADESNSLTLNWSPTLELQGTVESPMTPSQFATSVDISERGLIATGFNNGTVQISELSTLRPLYNFESQHSMINNSNSIRSVKFSPQGSLLAIAHDSNSFGCITLYETEFGERIGSLSVPTHSSQASLGEFAHSSWVMSLSFNDSGETLCSAGWDGKLRFWDVKTKERITTLNMHCDDIEIEEDILAVDEHGDSLAEPGVFDVKFLKKGWRSGMGADLNESLCCVCLDRSIRWFREAGGK	2	2	
Ctf4 (natural protein, UniProt Q01454 1-927, looked up) MVSVIDKLVFDFGGKTLVSLAPDNNTLCVANKNGLTKILKTNNPEEEPETLDSSKLVSSIKCYSNSHFLMTTMQGDALRYNIDSSQEELLARFALPLRDCCVIHSGKMAVFGGDDLELILLELDDETHKKHAIKIDEQVSQISYNSQMNILAVSMINGKVQIFSLTSTIPNKVHELNDYIVANSYDDTHRDKILSNMMDDIDKDNDNDLSETADPDENNVADPEFCAANRICTRVAWHPKGLHFALPCADDTVKIFSIKGYSLQKTLSTNLSSTKAHFIDLQFDPLRGTYIAAVDLNNKLTVWNWETSEIHYTREFKRKITNIAWKIQADSKTLDLVLGTWSGSIAIVQNLAESVVSNIPDQSVAESSTKHGLFVDSESDLENLEGNDDINKSDKLFSDITQEANAEDVFTQTHDGPSGLSEKRKYNFEDEEDFIDDDDGAGYISGKKPHNEHSYSRVHKTHSFPISLANTGKFRYMPFSPAGTPFGFTDRRYLTMNEVGYVSTVKNSEQYSITVSFFDVGRFREYHFEDLFGYDLCFLNEKGTLFGQSKTGQIQYRPHDSIHSNWTKIIPLQAGERITSVAATPVRVIVGTSLGYFRSFNQFGVPFAVEKTSPIVALTAQNYRVFSVHYSQFHGLSYSLSELGTSSKRYYKRECPLPMSLPNINSDMKKDANLDYYNFNPMGIKSLFFSSYGDPCIFGSDNTLLLLSKWRSPEESKWLPILDSNMEIWKMSGGKETTDIHVWPLALAYDTLNCILVKGKHIWPEFPLPLPSEMEIRMPVFVKSKLLEENKAILNKKNEIGADTEAEEGEEDKEIQIPVSMAAEEEYLRSKVLSELLTDTLENDGEMYGNENEVLAALNGAYDKALLRLFASACSDQNVEKALSLAHELKQDRALTAAVKISERAELPSLVKKINNIREARYEQQLK			3
